What was measured:
Experiment in all cases: Kinetic parameters for degradation of synthetic substrates by the BrAAP component
Assay type in all cases: biochemical, bovine
[1] = substrate: CC(C)C[C@H](NC(=O)OCc1ccccc1)C(=O)NCC(=O)N[C@@H](C)C(=O)N[C@@H](CC(C)C)C(=O)N[C@@H](C)C(=O)Nc1ccc(C(=O)O)cc1; conditions: other: [S] 1.6-8.0; mean of 2 determinations; from plots of 1/v vs 1/s
Source text: (§1) A coupled two step reaction in the presence of excess aminopeptidase N (AN) was used for the determination of the BrAAP and SNAAP activities as described previously (Orlowski et al., Biochemistry 32:1563-1572 (1993)). Aminopeptidase N was purified from hog kidneys as described by Pfleiderer, Meth. Enzymol. 19:514-521 (1970) and freed from the contaminating metalloendopeptidase (EC 3.4.24.11) as previously described (Almenoff & Orlowski, Biochemistry 22:590-599 (1983)).
(§2) The flexibility of the amino acid residue in the P4 position of the inhibitors of the present invention is based on results of substrate specificity studies of the BrAAP component. Activities towards various analogs of the prototypic BrAAP substrate Cbz-Gly-Pro-Ala-Leu-Gly-pAB were determined using the coupled two-step reaction carried out in the presence of AN, as described in Example 4. The BrAAP substrates tested included the following:
(§3) Data represent mean values for 2 separate determinations. For substrates
(§4) with MichaelisMenten kinetics, Km and kcat were determined from
(§5) the regression line fitted to plots of 1/v vs 1/s. Kcat was estimate
(§6) assuming a molecular mabs of 700 KDa and assuming one active site per
(§7) molecule. […] The apparent Km for
(§8) this substrate is taken as the substrate concentration at half of the
(§9) Vmax observed. kcat for this substrate was calculated assuming
(§10) Vmax of 300 U/mg and assuming one active site per molecule of MPC.

[2] = substrate: CC(C)C[C@H](NC(=O)[C@H](C)NC(=O)CNC(=O)CNC(=O)OCc1ccccc1)C(=O)N[C@@H](C)C(=O)Nc1ccc(C(=O)O)cc1; conditions: other: [S] 0.8-4.8; sigmoidal kinetics; substrate concentration at half of the Vmax observed
Source text: as §1, §2, §3, §4, §5, §6, §7, §8, §9, §10

[3] = substrate: CC(C)C[C@H](NC(=O)[C@H](C)NC(=O)CNC(=O)[C@@H]1CCCN1C(=O)OCc1ccccc1)C(=O)N[C@@H](C)C(=O)Nc1ccc(C(=O)O)cc1; conditions: other: [S] 1.6-8.0; mean of 2 determinations; from plots of 1/v vs 1/s
Source text: as §1, §2, §3, §4, §5, §6, §7, §8, §9, §10

B1: BRAAP component of the MPC (Bos taurus) (protein)
chain 1: TTTLAFKFRHGVIVAADSRATAGAYIASQTVKKVIEINPYLLGTMAGGAADCSFWERLLARQCRIYELRNKERISVAAASKLLANMVYQYKGMGLSMGTMICGWDKRGPGLYYVDSEGNRISGATFSVGSGSVYAYGVMDRGYSYDLEVEEAYDLARRAIYQATYRDAYSGGSVSLYHVREDGWIRVSSDNVADLHDKYSGSTH
chain 2: TTIMAVQFDGGVVLGADSRTTTGSYIANRVTDKLTPIHDRIFCCRSGSAADTQAVADAVTYQLGFHSIELNEPPLVHTAASLFKEMCYRYREDLMAGIIIAGWDPQEGGQVYSVPMGGMMVRQPFAIGGSGSSYIYGYVDATYREGMTKEECLQFTANALALAMERDGSSGGVIRLAAIAEPGVERQVLLGDQIPKFTIATLPPL
chain 3: TTIAGVVYKDGIVLGADTRATEGMVVADKNCSKIHFISPNIYCCGAGTAADTDMTTQLISSNLELHSLSTGRLPRVVTANRMLKQMLFRYQGYIGAALVLGGVDVTGPHLYSIYPHGSTDKLPYVTMGSGSLAAMAVFEDKFRPDMEEEEAKKLVSEAIAAGIFNDLGSGSNIDLCVISKSKLDFLRPYSVPNKKGTRFGRYRCEKGTNAVLTEKVTTLEIEVLEETVQTMDTS
notes: The MPC was isolated from frozen bovine pituitaries; tissue PelFreeze, Inc. (Rogers, Ark.) (supplier of the tissue; the enzyme was purified in house); host or cells: bovine pituitaries
Km [1]: 30 mM
kcat [1]: 24 s⁻¹
kcat/Km [1]: 820 M⁻¹ s⁻¹
Km [2]: 2.5 mM
kcat [2]: 58 s⁻¹
kcat/Km [2]: 23,300 s^-1 M^-1
Km [3]: 8.7 mM
kcat [3]: 8.4 s⁻¹
kcat/Km [3]: 960 M⁻¹ s⁻¹

Reference: patent US5580854A, “Substrate-related peptidyl-aldehyde inhibitors of the proteolytic activity of the multicatalytic proteinase complex” (Mount Sinai School of Medicine of The City University of …, priority 1994, dated 1996)
